According to paper PMC3348928, “Ordered Self-Assembly Mechanism of a Spherical Oncoprotein Oligomer Triggered by Zinc Removal and Stabilized by an Intrinsically Disordered Domain” (PLoS ONE, 2012):

How the values were obtained:
[1] = target: Recombinant E7 HPV-16 protein (human papillomavirus type 16 E7 oncoprotein) (human papillomavirus type 16) (UniProt P03129); assay: thioflavin T fluorescence kinetics; 10 mM sodium phosphate pH 7.0, 1 mM DTT, 20 µM ThT; triggered by 1.0 mM EDTA; 15 µM protein (Figure 3)
[2] = target: Recombinant E7 HPV-16 protein (human papillomavirus type 16 E7 oncoprotein) (human papillomavirus type 16) (UniProt P03129); assay: thioflavin T fluorescence kinetics; ThT traces at different initial E7 concentrations after EDTA, analysed with the kinetically limited (KL) assembly model of Zlotnick; 10 mM sodium phosphate pH 7.0, 1 mM DTT, 20 µM ThT
[3] = target: Recombinant E7 HPV-16 protein (human papillomavirus type 16 E7 oncoprotein) (human papillomavirus type 16) (UniProt P03129); assay: thioflavin T fluorescence kinetics; 10 mM sodium phosphate pH 7.0, 1 mM DTT, 20 µM ThT; triggered by 1.0 mM TPEN; 15 µM protein
[4] = target: E7 (Human papillomavirus type 16) (UniProt P03129); conditions: cited from earlier work
[5] = target: the molecule itself; assay: dynamic light scattering; 15 µM protein, 10 mM sodium phosphate pH 7.0, 1.0 mM DTT, 25°C; after addition of 1.0 mM EDTA (zinc removal); E7 at the plateau, E7C after 2 h and 24 h

Recombinant E7 HPV-16 protein (human papillomavirus type 16 E7 oncoprotein) (from UniProt P03129 1-98) (natural protein)
half-life of the slow increase in ThT binding (oligomerisation phase) [1]: 10 min | half-life of the slow oligomerization phase, EDTA [1]: < 8 min | overall average time for each monomer added at 20 µM [2]: 28 s | z-nucleus size n (KL model) [2]: 1.2 | half-life of the slow oligomerization phase, TPEN [3]: < 6 min

E7 (from UniProt P03129)
Kd [4]: 1000 nM

B1: E7 HPV-16 C-terminal domain, spanning residues 40-98 (domain or fragment, human papillomavirus type 16, UniProt P03129 40-98, looked up)
chain: GPAGQAEPDRAHYNIVTFCCKCDSTLRLCVQSTHVDIRTLEDLLMGTLGIVCPICSQKP
notes: The introduction gives 58 amino acids for E7C, but residues 40-98 are 59; also called E7C; source: recombinant, expressed and purified as previously described [52]
binding result [5]: binds
